We go through one molecule from EP3553078A1 (Julius-Maximilians-Universität Würzburg, dated 2019).

The target of this experiment is T1, IL-4Rα ectodomain (site-specifically biotinylated IL-4Rα ectodomain protein) (human, UniProt P24394 26-232, site-specifically biotinylated (site not stated)).
T1 construct: extracellular domain; Immobilised on a streptavidin-coated SPR chip; also called IL-4Rα ECD; IL-4 receptor α
T1 sequence (looked up): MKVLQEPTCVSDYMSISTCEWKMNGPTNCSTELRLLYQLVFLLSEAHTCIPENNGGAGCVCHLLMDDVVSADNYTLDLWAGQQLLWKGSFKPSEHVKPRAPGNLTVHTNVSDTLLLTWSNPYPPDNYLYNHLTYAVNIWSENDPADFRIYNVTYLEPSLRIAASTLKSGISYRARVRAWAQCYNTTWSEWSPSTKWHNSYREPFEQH
The experiment is described as follows: in vitro interaction analysis (SPR) on IL-4Rα.

B1: IL-4 mutein F82D Q20N T28N K61N R121C-Glc (Hek293-derived, hyper-glycosylated) (ligand)
chain: HKCDITLQEIIKTLNSLTENKTLCTELNVTDIFAASKNTTEKETFCRAATVLRQFYSHHENDTRCLGATAQQFHRHKQLIRDLKRLDRNLWGLAGLNSCPVKEANQSTLENFLERLKTIMCEKYSKCSS
modifications: complex N-glycans at positions 38, 20, 28 and 61; disulphide conjugated glucose at Cys121
notes: also called Q20N/T28N/K61N/F82D/R121C-Glc; 3rd generation IL-4 antagonist; not shown: C-terminal thrombin cleavage site and hexahistidine tag of the modified pHLsec vector
On to B1, for which the Kd (commonly the equilibrium constant for the complex coming apart) was ~218 pM.
